# Measured values: patent publication CN112125974A (BIORAY LABORATORIES INC, dated 2020)
# T1: BCMA on BCMA+ target cells (NCI-H929; K562-BCMA) (human, UniProt Q02223 1-184)
# T1 sequence (looked up): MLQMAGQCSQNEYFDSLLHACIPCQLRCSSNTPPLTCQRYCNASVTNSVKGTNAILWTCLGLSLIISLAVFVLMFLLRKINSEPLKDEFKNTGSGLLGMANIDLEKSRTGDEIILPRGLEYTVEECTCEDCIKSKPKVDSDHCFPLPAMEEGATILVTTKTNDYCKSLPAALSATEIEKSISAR
# B1: 2079嵌合抗原受体 (CAR-BCMA-2079, on T cells CAR-BCMA-2079-T) (other)
# chain: QSALTQPASVSGSPGQSITMSCTGTSSDVGGYKYVSWYQQHPGKAPQLMIHDVRERPSGVSNRFSGSKSGNTASLTISGLQAEDEADYYCSSFTNNSTFVFGTGTKVTVLGSTSGSGKPGSGEGSTKGQVQLQQSGPGLVKPSQTLSLTCAISGDSVSSNSAAWNWIRQSPSRGLEWLGRTYYRSTWYNDYAVSVKSRITINPDTSKNQFSLQLNSVTPEDTAVYYCARGTGTLDYWGQGTLVTVSSTTTPAPRPPTPAPTIASQPLSLRPEACRPAAGGAVHTRGLDFACDIYIWAPLAGTCGVLLLSLVITLYCKRGRKKLLYIFKQPFMRPVQTTQEEDGCSCRFPEEEEGGCELRVKFSRSADAPAYKQGQNQLYNELNLGRREEYDVLDKRRGRDPEMGGKPRRKNPQEGLYNELQKDKMAEAYSEIGMKGERRRGKGHDGLYQGLSTATKDTYDALHMQALPPR
# B2: 抗BCMA单链抗体3(命名为抗体2079) (scFv, V domains shown)
# VH: QVQLQQSGPGLVKPSQTLSLTCAISGDSVSSNSAAWNWIRQSPSRGLEWLGRTYYRSTWYNDYAVSVKSRITINPDTSKNQFSLQLNSVTPEDTAVYYCARGTGTLDYWGQGTLVTVSS
# VL: QSALTQPASVSGSPGQSITMSCTGTSSDVGGYKYVSWYQQHPGKAPQLMIHDVRERPSGVSNRFSGSKSGNTASLTISGLQAEDEADYYCSSFTNNSTFVFGTGTKVTVL
# B3: 2073嵌合抗原受体 (CAR-BCMA-2073, on T cells CAR-BCMA-2073-T) (other)
# chain: DIVMTQSPDSLAVSLGERATINCKSSQNVLYSSNNRNYLAWYQQKPGQPPKLLIYWASTRESGVPDRFSGSGSGTDFTLTISSLQAEDVAVYYCQQYYGSVVTFGGGTKVEIKGSTSGSGKPGSGEGSTKGQVQLQQSGPGLVKPSQTLSLTCAISGDSVSSNSAAWNWIRQSPSRGLEWLGRTYYRSKWYNDYALSVKSRITINPDTSKNQFSLQLNSVTPEDTAVYYCARGASSFDYWGQGTLVTVSSTTTPAPRPPTPAPTIASQPLSLRPEACRPAAGGAVHTRGLDFACDIYIWAPLAGTCGVLLLSLVITLYCKRGRKKLLYIFKQPFMRPVQTTQEEDGCSCRFPEEEEGGCELRVKFSRSADAPAYKQGQNQLYNELNLGRREEYDVLDKRRGRDPEMGGKPRRKNPQEGLYNELQKDKMAEAYSEIGMKGERRRGKGHDGLYQGLSTATKDTYDALHMQALPPR
# B4: 抗BCMA单链抗体4(命名为抗体2082) (scFv, V domains shown)
# VH: QVQLQQSGPALVKPSQTLSLTCVISGDSVSSNSASWTWIRQSPSRGLEWLGRTYRRADRWYYDYALSLNSRLTINPDTSKNHFALHLTSVTPEDTAVYYCSREYWGGSFDVWGQGTTVTVSS
# VL: QPVLTQPASVSGSPGQSITISCTGTSSDVGGYDYVSWYQQHPGKAPKLMLYEVNNRPSGVSNRFSGSKSGNTASLTISGLQAEDEGAYYCSSYTSSNTHVVFGGGTQLTVL
# B5: 抗BCMA单链抗体2(命名为抗体2077) (scFv, V domains shown)
# VH: QVQLQQSGPGLVKPSQTLSLTCAISGDSVSSNSAAWNWIRQSPSRGLEWLGRTYYRSKWYNDYAVSVKSRITINPDTSKNQFSLQLNSVTPEDTAVYYCARLAYEVRSTDWYFDLWGRGTLVTVSS
# VL: QPVLTQPPSVSEAPRQRVTISCSGSSSNIGNNAVNWYQQLPGKAPKLLIYYDDLLPSGVSDRFSGSKSGTSASLAISGLQSEDEADYYCAAWDDSLNGWVFGGGTKLTVL
# Tests used:
# [1] = molecular target: T1, BCMA on BCMA+ target cells (NCI-H929; …); assay: cell-based or functional assay
# [2] = molecular target: biotin-BCMA抗原 (human) (UniProt Q02223); assay: flow cytometry, T cells 72 h after infection, 0.2 μg/ml biotin-BCMA, APC-Streptavidin
# [3] = molecular target: 人BCMA(hBCMA)蛋白 (human) (UniProt Q02223); assay: phage ELISA, 0.5 μg/ml hBCMA coated, phage supernatant, anti-M13-HRP
Binder,"proportion of target cells K562-BCMA in total cells, co-culture E:T 7:1, 0 h [1] [%]","proportion of target cells K562-BCMA in total cells, co-culture E:T 7:1, 48 h [1] [%]","proportion of target cells NCI-H929 in total cells, co-culture E:T 5:1, end [1] [%]","proportion of target cells NCI-H929 in total cells, co-culture E:T 5:1, start [1] [%]",CAR-BCMA阳性率 (percent of T cells stained by biotin-BCMA) [2] [%],OD450 [3] [OD450]
B1,9.28,8.69,6.63,11.3,22.3,
B2,,,,,,> 1.5
B3,8.69,6.1,0.435,15.4,45.1,
B4,,,,,,> 1.5
B5,,,,,,> 1.5
